The test system of one experiment is cardiomyocytes (NRVMs). The experiment can be described thus: Oxygen consumption rate of cardiomyocytes (Seahorse Mito Stress Test). It counts as cell-based, neonatal rat. The settings on record: 24 h treatment; vs untreated control; FIG. 12. How it is done:
OCR detection of cardiomyocytes was conducted with the Seahorse Xfe 24 analyzer (Agilent, Santa Clara, USA). Cardiomyocytes were seeded at a density of 8×10^4/well in a special Seahorse 24-well plate (102342-100, Seahorse). After treating with hCT1, PE and drug for 24 h, the medium was replaced with XF medium containing 10 mM D-(+)-glucose (G7021, Sigma-Aldrich), and 1 mM sodium pyruvate (11360070, Thermo Fisher). The plates were placed in a CO2-free 37 °C incubator for an hour before the measurement. A Seahorse XF Cell Mito Stress Test Kit (103015-100, Seahorse) was used for detection. The basal respiration of the NRVMs was detected, and ATP-linked OCR was analyzed after treatment with 1 μM oligomycin (ATP synthase inhibitor). Then, the uncoupling agent carbonyl [COMPOUND LEFT OUT] 4-(trifluoromethoxy) phenylhydrazone (FCCP) 0.5 μM was injected to detect maximal respiration. Finally, rotenone and antimycin A (AR) were used to abolish mitochondrial respiration by inhibiting complexes I and III, respectively.

In experiment [1] the test system is NT Pro-BNP (iCell Cardiomyocyte). The experiment can be described thus: NT Pro-BNP ELISA in iCell Cardiomyocyte supernatants. In kind it is cell-based, human. The note with it: iCell Cardiomyocyte; control CT1; 24 hour; UT 2407.521. How it is done: (§1) A secondary screening was performed with 10 drugs identified from primary screening for their ability to induce physiological remodeling using morphometric analysis and measuring the levels of B-type natriuretic peptide (BNP), as a surrogate indicator of the hypertrophic response using ELISA. The compounds were selected based on the highly enriched targets identified in the drug set enrichment analysis with a high Z score. Cryopreserved iPS cell-derived cardiomyocytes (“iCell Cardiomyocytes”) obtained from Cellular Dynamics International (CDI, Madison, WI) were used as a cell model to perform the screening.
Pro-NT BNP levels in the culture media were measured following the 24 hour treatment using the Human NT Pro-BNP DuoSet ELISA kit (R&D Systems, Minnesota USA) as per the manufacturer's instruction. […] The plates were read on BMG BioTek Molecular Devices SpectraMax Microplate Reader at 450 nm to obtain the optical density followed by reading at 540 nm for wavelength correction.
Protein levels were identified by plotting a 4 parametric logistic regression curve using the standards provided with the kit.

The test system of experiment [2] is primary neonatal rat ventricular myocytes (NRVM). The experiment can be described thus: Primary screen of 800 compounds for cardiomyocyte length (Cellomics Arrayscan morphometry, NRVM). It counts as cell-based, Sprague Dawley rat. The note with it: compared to PE-treated cardiomyocyte and a control; 24 hour treatment. The text has this:
(§2) A library of 800 small molecule compounds that can stimulate favorable cardiac adaptation in primary neonatal rat ventricular myocytes (NRVM) was screened. To identify the beneficial modifiers of hypertrophy, the Cellomics Arrayscan High Throughput Screening platform was employed to quantify morphometric features such as, for example, length, width, and length to width ratio from images acquired using a 10× lens for DAPI-labeled nuclei and CY3 labeled α actinin stained cardiomyocytes in a 96 well format. The lead compound was also screened in iPSC derived cardiomyocytes as a part of secondary screening as it offers a physiologically relevant human cell-based model.
Neonatal rat ventricular myocytes (NRVM) were isolated from 2-day-old Sprague Dawley rat pups. The NRVM were cultured in plating media (Dulbecco Modified Eagle Media, 10% Fetal Bovine Serum, 100 U/mL penicillin, and […] streptomycin) at a density of 10,000 cells per well in a 96 well plate format. One day after isolation, myocytes were switched to serum-free maintenance media for 24 hours. […]
An algorithm was developed in Cellomics Arrayscan Vti HCS reader to measure the morphological characteristics such as cardiomyocyte length, width, length-width ratio, cell area, and the intensity of α-actinin. […]

Experiment [3] relates to neonatal rat ventricular cardiomyocytes. Kind of experiment: Calcium transients (Fura2-AM) in neonatal rat ventricular cardiomyocytes. It counts as cell-based. How it is done:
Method: Freshly isolated wildtype neonatal rat ventricular cardiomyocytes were plated onto laminin coated glass coverslides, rinsed once and then loaded with 1 μM Fura2-AM (Life Technologies) for 15 min at 37 °C. After washing the cells thrice with Tyrode solution, measuring chambers were transferred onto a Nikon Eclipse TE2000-U microscope equipped with a fluorescence detection system (IonOptix). Ca^2+ transient values were recorded according to the corresponding FRET experiments. F340/F380 values in Fura2-AM experiments were calculated from the ratios of 510 nm emission light measured at 340 and 380 nm excitations.

Experiment [4] concerns iPS cell-derived cardiomyocytes (iCell Cardiomyocytes). Kind of experiment: Secondary screening: morphometric analysis of iCell Cardiomyocytes. In kind it is cell-based, human. The note with it: 24 hours.
Source text: as §2, §1
The cells were plated at a density of 2.5×10^4 cells onto 25 mm diameter fibronectin coated glass coverslips in plating media for 48 hours. The media was replaced with Supplemented William's E (SWE) medium (SWE) media supplemented with cocktail containing penicillin-streptomycin, ITS+(insulin, transferrin, selenium complex, BSA, and linoleic acid), GlutaMAX™, and HEPES (Primary Hepatocyte Maintenance Supplements-GIBCO) for 48 hours. The cells were treated with controls (CT1-40 ng/mL, PE-100 uM) and drugs (AZD1152-HQPA, LY283519) at varying concentrations (2.5, 1, 0.5, and 0.25 uM) for 24 hours.
Post treatments, the cells were washed, fixed and treated with primary antibody, secondary antibody similar to the protocol of Example 3. The effect on the morphometric parameters was assessed using Cellomics Arrayscan Vti HCS reader. The Image acquisition was performed using the Zeiss AxioVision SE64 Imaging software and analyzed using the ImageJ2 software.
iCell cardiomyocytes were seeded at a density of 10,000 cells per well in a 96 well plate format. The cells were maintained as in Example 3 and were treated with controls (hCT1, PE) and drugs (AZD1152-HQPA, LY283519) at four different concentrations for 24 hours. The cells were then fixed and stained with a Actinin for cardiomyocytes followed by nuclear staining with DAPI. The plates were analyzed in Cellomics Arrayscan Vti HCS reader to assess morphometric changes following treatment.

B1: CT1: Cardiotrophin 1 at 40 ng/mL was used as a positive control (protein, UniProt Q16619 1-201, looked up)
Cardiotrophin-1: MSRREGSLEDPQTDSSVSLLPHLEAKIRQTHSLAHLLTKYAEQLLQEYVQLQGDPFGLPSFSPPRLPVAGLSAPAPSHAGLPVHERLRLDAAALAALPPLLDAVCRRQAELNPRAPRLLRRLEDAARQARALGAAVEALLAALGAANRGPRAEPPAATASAASATGVFPAKVLGLRVCGLYREWLSRTEGDLGQLLPGGSA
Turning to B1, the “oxygen consumption rate (OCR)” value in the experiment on cardiomyocytes (NRVMs) is recorded as “increase the rate of oxygen consumption”. For the same molecule, in experiment [1], the “Mean NT Pro-BNP levels” value was 2240.774 pg/mL. Also, the length of cardiomyocyte result in experiment [2] is reported as “increase in the length of cardiomyocyte”. Further, in experiment [3] (compared to control, FIG. 11), the “area under the curve (AUC) of calcium transient” value is “increased AUC compared to control” and the calcium transient levels entry was “increase in calcium transient levels compared to control”. Moreover, the “contractility / contractile function” value in experiment [3] (inferred from peak calcium transient, AUC and time to peak) is “improved contractility by modest increase in peak calcium transient levels and AUC with modest decrease in time to attain those peak levels”. In addition, in experiment [4] (iCell Cardiomyocyte, positive control CT1, 40 ng/mL, UT 213.01323), the Mean Cardiomyocyte Length was determined as 229 µm. Further, the “length in iCell cardiomyocyte compared to hCT1” value in experiment [4] (iCell cardiomyocytes, 96 well, four concentrations) was “positive modulator of cardiomyocyte length”.
